The Kd is the constant that tells how readily two partners part at equilibrium. Low values mean a tighter complex, high ones a looser complex.

human CPAP PN2-3 domain (aa 319-394), wild type, sequence (Q9HC77 319-394): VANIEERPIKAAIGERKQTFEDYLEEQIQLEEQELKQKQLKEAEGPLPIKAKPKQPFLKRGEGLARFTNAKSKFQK
human CPAP PN2-3 domain (aa 319-394) EE343RR, sequence (Q9HC77 other isoform, or with tags, fused parts or gaps): as the sequence (Q9HC77 319-394) above, with E25R, E26R counted along it
PN2-3N peptide (N-terminal helical region of PN2-3, aa 323-361 of CPAP), sequence (Q9HC77 323-361): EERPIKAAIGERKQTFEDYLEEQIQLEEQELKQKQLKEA

For this experiment, the target named is tubulin heterodimer (porcine/bovine brain tubulin) (not stated (porcine or bovine brain)) (UniProt Q6B856). The experiment is described as follows: ITC; PN2-3 proteins/peptides titrated into tubulin in the cell; 15 °C; 1xBRB80 (80 mM PIPES-K, 1 mM MgCl2, 1 mM EGTA, pH 6.8); one set of binding sites model; tubulin 9 μM for wild type and mutant PN2-3. In general terms: In ITC the heat of successive injections is recorded.
For “PN2-3N peptide (N-terminal helical region of PN2-3, aa 323-361 of CPAP) (from UniProt Q9HC77 323-361)”, the Kd is 68000 nM. With “human CPAP PN2-3 domain (aa 319-394) EE343RR (from UniProt Q9HC77 319-394) (domain or fragment)”, the Kd turned out to be 194 nM. As for “human CPAP PN2-3 domain (aa 319-394) F375A (from UniProt Q9HC77 319-394) (domain or fragment)”, the figure is 2800 nM; as for “human CPAP PN2-3 domain (aa 319-394), wild type (from UniProt Q9HC77 319-394) (domain or fragment)”, 25.6 nM.

Values taken from paper PMC4912634.
